Assay results reported in US20220162291A1 (DUKE UNIVERSITY, published 2022).
Residue numbers refer to the chain shown, from its start.

B1: 22D10 (antibody, V domains shown)
VH: DVQLQESGPALVKPSQTVSLTCTVTGYSITNGNHWWNWIRQVSGSKLEWLGYIRSSGSSDSNPSLKSRISITRDTSKNQLFLHLNSMTTEDIATYYCARGGGLRHYFDYWGQGTTLTVSS
VL: DIQMTQSPASLSASVGDTVTITCRASGNIHNYLAWYHQKQGKSPQLLVYHAETLTDGVPSRFSGSGSGTQYSLKINSLQPEDFGSYYCQHFWSTPYTFGGGTKLEIKR
notes: Recombinant mouse IgG (made as IgG1 and IgG2c)
B2: HSV010-4 (antibody, V domains shown)
VH: QVQLKESGPGLVAPSQSLSITCTVSGFSLSRHDVSWVRQPPGKGLEWLGVIWGDGSTNYHSALISRLSISKDNSKSQVFLKLNSLQNDDTATYYCAKEDYGIFPYWGQGTLVTVSA
VL: DIKMTQSPSSMYASLGEKVTITCKASQDISSYLSWFQQKPGKSPKTLIYRANRLVDGVPSRFSGSGSGQDYSLSISSLDYEDMGIYYCLQYDEFPLTFGAGTKLELKR
notes: Mouse monoclonal IgG
B3: HSV010-7 (antibody, V domains shown)
VH: QVQLQQSGPELVKPGASVKLSCKASGYTFTNYDINWVKQRPGQGLEWIGWIYPRDGSTKYNEKFKGKATLTIDTSSSTAYMELHSLTSEDSAVYFCARGIFYVNYDVYWGQGTLVTVSA
VL: DIQMTQSSSFLSVSLGGRVTITCKASDHINNWLAWYQQKPGHAPRLLISGAASLETGVPSRFSGSGSGKDYTLTITSLQTEDVATYYCQQYWSSPLTFGGGTKLELKR
notes: Mouse monoclonal IgG
B4: HSV010-34 (antibody, V domains shown)
VH: EVQLVESGGGLVQPGESLKLSCESNEYEFPSHDMSWVRKTPEKRLELVAAINSDGGSTYYPDTMERRFIISRDNTKKTLYLQMSSLRSEDTALYYCARHSSGYVLDYWGQGTSVTVSS
VL: B3 VL with F10Y, N31H, H42N, A52T, T74S, T76A, S94T, L96Y, L106I
notes: Mouse monoclonal IgG
B5: 33B8 (antibody, V domains shown)
VH: EVKLVESGGGLVQPGGSLSLSCATSGFTFTDYYMNWVRQPPGKALEWLGFIRNKANGYTTEYSASVKGRFTISRDNSQSILYLQMNSLRAEDSATYYCACGNYVGYAMDYWGQGTSVTVSS
VL: DIVMSQSPSSLAVSAGEKVTMSCKSSQSLLNSRTRKNYLAWYQQKPGQSPKLLIYWASTRESGVPDRFTGSGSGTDFTLTISSVQAEDLAVYYCKQSYNLYTFGGGTKLEIKR
notes: as for B1
B6: HSV010-28 (antibody, V domains shown)
VH: QIQLVQSGPELKKPGETVKISCKASGYTFTTYGMSWVKQAPGKGLKWMGWINTYSGVSTYADDFKGRFAFSLETSASTAYLQINNLKNEDTATYFCAQVNYAMDYWGQGTSVTVSS
VL: DIVMTQSHKFLSTSVGDWVTITCKASQDVSTAVAWFQQKPGQSPKVLIYSASYRYTGVPDRFTGSGSGTDFTFTISSVQAEDLAVYYCQQHYSTPRTFGGGTKLEIKR
notes: Mouse monoclonal IgG

Legend:
[1] = biological target: T1, glycoprotein B of HSV-1 (gB-1) (HSV-1, UniProt P10211 31-730); experiment: Luminex multiplex assay on gB-1-conjugated microspheres
Procedure: The gB-1 binding of the antibodies was determined by Luminex multiplex assay. Mixtures of antigen (gB-1)-conjugated microspheres (1,000 counts each) were added to each well of 96-well filter plates (Millipore). […] Samples were diluted in PBS containing 1% cow milk, 1% BSA, 0.05% Tween 20 and 0.05% NaN₃. After washing, PE goat anti-mouse IgG was added to the plates and incubated for 1 hour at room temperature with mild agitation. After washing, microspheres were resuspended in PBS containing 1% BSA, 0.05% Tween 20 and 0.05% NaN₃ and fluorescent signals from each microsphere were measured in a Bio-Plex® 3D machine.

[2] = biological target: T1, glycoprotein B of HSV-1 (gB-1); experiment: Luminex bead competition on gB-1; competitor BMPC-23 human IgG at 2 ng/ml

Binder | binding result [1] | percent inhibition at 222 ng/ml [2]
B1 | no binding | –
B2 | – | > 95%
B3 | – | > 90%
B4 | – | > 80%
B5 | no binding | –
B6 | – | 30%
